Measurements from patent US20240117073A1, “METHODS OF TREATING NEOPLASTIC ASTROCYTOMA” (Ludwig Institute for Cancer Research Ltd., priority 2009, published 2024).
Entries after “also recorded” stand apart in the source; their conditions may differ. Where no end group is shown, it is not given here.

What was measured:
[1] = target: amplified / overexpressed wild-type EGFR (human) (UniProt P00533); assay: Scatchard analysis, 125I-labelled 528, A431 cells
[2] = target: C271A/C283A-EGFR on Ba/F3 cells (human) (UniProt P00533); assay: FACS median fluorescence, Ba/F3 cells, average for four independent clones, reference M2
de2-7 EGFR (human) = de2-7 EGFR (human) (UniProt P00533); assay: IHC glioblastoma, amplified EGFR with de2-7 EGFR
[3] = target: wtEGFR-FLAG on Ba/F3 cells (human) (UniProt P00533); assay: FACS median fluorescence, Ba/F3 cells, reference M2 anti-FLAG
[4] = target: amplified / overexpressed wild-type EGFR (human) (UniProt P00533); assay: IHC glioblastoma, amplified EGFR, no de2-7 EGFR
A431 xenografts = assay: combination therapy with AG1478, preventative model; format: in vivo, mice; conditions: 0.1 mg mAb806; 400 μg AG1478
Experimental: AG1478 (4-(3-Chloroanilino)-6,7-dimethoxyquinazoline) is a potent and selective inhibitor of the EGFR kinase versus HER2-neu and platelet-derived growth factor receptor kinase (Calbiochem Cat. No. 658552). […] The results are illustrated in FIG. 12. […] 400 μg AG1478 was administered at 0, 2, 4, 7, 9, and 11 days post xenograft.

EGFR of A431 cells = EGFR of A431 cells (Homo sapiens, UniProt P00533); assay: ELISA of 806 reactivity in lysate of AG1478 treated cells; format: cell-based; conditions: increasing amounts of AG1478 (0.5 μM and 5 μM)
[5] = target: EGFR peptide 287-302 (806 peptide epitope) (human); assay: BIAcore, peptide 287-302 immobilised by amine coupling
[6] = target: EGFR peptide 287-302 (806 peptide epitope) (human); assay: BIAcore, peptide 287-302 immobilised by thiol coupling
[7] = target: EGFR peptide 287-302 (806 peptide epitope) (human); assay: BIAcore, peptide 287-302 immobilised by Pms-Ser coupling
EGFR fragments = assay: Western blot of GH/EGFR fragment fusion proteins; format: binding, human
Experimental: The day prior to transfection with these fragments, human 293T embryonic-kidney fibroblasts were seeded at 8×10^5 per well in 6-well tissue culture plates containing 2 ml of media. Cells were transfected with 3-4 μg of plasmid DNA complexed with Lipofectamine™ 2000 (Invitrogen) according to the manufacturer's instructions. […] Parallel membranes were probed overnight with mAb 9B11 (1:5000, Cell Signaling Technology, Danvers, Massachusetts) to detect the c-myc epitope. Membranes were washed in TBST, and incubated in blocking buffer containing horseradish peroxidase-conjugated rabbit anti-mouse IgG (Biorad) at a 1:5000 dilution for 2 h at room temperature. Blots were then washed in TBST, and developed using autoradiographic film following incubation with Western Pico Chemiluminescent Substrate (Pierce, Rockford, Illinois).
(§1) Expression of EGFR proteins on the yeast cell surface was performed as previously described (Johns et al., 2004).

[8] = tested on: normal human liver sections; assay: immunohistochemistry with mAb175
Experimental: (§2) Bound antibody was detected using the Dako Envision™+HRP detection system as per manufacturer's instructions. Sections were finally rinsed with water, counterstained with hematoxylin and mounted.
The U87MG cell line only expresses modest levels of the wild-type EGFR (FIG. 66A) and has no detectable EGFR autocrine loop.

[9] = tested on: EGFR fragments displayed on yeast; assay: yeast surface display of EGFR fragments; format: binding, human
Experimental: as §1
Briefly, transformed colonies were grown at 30° C. in minimal media containing yeast nitrogen base, casein hydrolysate, dextrose, and phosphate buffer pH 7.4, on a shaking platform for approximately one day until an OD600 of 5-6 was reached. Yeast cells were then induced for protein display by transferring to minimal media containing galactose, and incubated with shaking at 30° C. for 24 h. Cultures were then stored at 4° C. until analysis. Raw ascites fluid containing the c-myc monoclonal antibody 9E10 was obtained from Covance (Richmond, CA). 1×10^6 yeast cells were washed with ice-cold FACS buffer (PBS containing 1 mg/ml BSA) and incubated with either anti-c-myc ascites (1:50 dilution), or human EGFR monoclonal antibody (10 μg/ml) in a final volume of 50 μl, for 1 hr at 4° C. The cells were then washed with ice cold FACS buffer and incubated with phycoerythrin-labelled anti-mouse IgG (1:25 dilution), in a final volume of 50 μl for 1 h at 4° C., protected from light. After washing the yeast cells with ice-cold FACS buffer, fluorescence data was obtained with a Coulter Epics XL flow cytometer (Beckman-Coulter), and analyzed with WinMDI cytometry software (J. Trotter, Scripps University). […]

xenograft U87MG (native) = assay: immunohistochemistry of xenograft sections; parameters: species or system human
Experimental: (§3) Xenografts were excised and bisected. One half was fixed in 10% formalin/PBS before being embedded in paraffin. Four micron sections were then cut and stained with haematoxylin and eosin (H&E) for routine histological examination. The other half was embedded in Tissue Tek® OCT compound (Sakura Finetek, Torrance, CA), frozen in liquid nitrogen and stored at −80° C. Thin (5 micron) cryostat sections were cut and fixed in ice-cold acetone for 10 min followed by air drying for a further 10 min. Sections were blocked in protein blocking reagent (Lipshaw Immunon, Pittsburgh U.S.A.) for 10 min and then incubated with biotinylated primary antibody (1 mg/ml), for 30 min at room temperature (RT). All antibodies were biotinylated using the ECL™ protein biotinylation module (Amersham, Baulkham Hills, Australia), as per the manufacturer's instructions. After rinsing with PBS, sections were incubated with a streptavidin horseradish peroxidase complex for a further 30 min (Silenus, Melbourne, Australia). Following a final PBS wash the sections were exposed to 3-amino-9-ethylcarbozole (AEC) substrate (0.1 M acetic acid, 0.1 M sodium acetate, 0.02 M AEC (Sigma Chemical Co., St Louis, MO)) in the presence of hydrogen peroxide for 30 min. Sections were rinsed with water and counterstained with hematoxylin for 5 min and mounted.
as §2

xenograft A431 = assay: immunohistochemistry of xenograft sections; parameters: species or system human
Experimental: as §3, §2

DU145 xenografts = assay: established xenograft model; format: in vivo, nude mice; conditions: day 67; 1 mg i.p.
Text: Xenografts were allowed to establish for 18 days before therapy commenced (3 times a week for 3 weeks on days indicated). At this time the average tumor volume was 90 mm^3 (FIG. 68D).

DU145 cells = assay: FACS binding to cell lines; format: cell-based, human
Text: Clearly, mAb806 and mAb175 can recognize only a small proportion of the EGFR on cells in the presence of an autocrine stimulation loop.

[10] = tested on: established U87MG.de2-7 xenografts; assay: in vivo 806 therapy study; parameters: species or system BALB/c nude mice; conditions: 6 x 1 mg IP, versus PBS
Experimental: (§4) To establish xenografts, mice were injected subcutaneously into the right and left inguinal mammary line with 1×10^6 A431 […] cells or 1×10^6 U87MG.de2-7 glioma cells in 100 μl of PBS. Tumor volume (TV) was calculated by the formula [(length×width^2)/2] where length was the longest axis and width the measurement at right angles to length. […] Therapy was administered on days 6, 8, 11, 13, 15 and 18 for A431, and days 4, 6, 8, 11, 13 and 15 for the U87MG.de2-7 cell lines respectively. Mean±SEM tumor volumes until termination of the experiments due to ethical considerations of tumor burden are presented in FIG. 91 for the A431 xenograft until day 25, and in FIG. 92 for U87MG.de2-7 xenografts until day 31.

[11] = tested on: established A431 xenografts; assay: in vivo 806 therapy study; parameters: species or system BALB/c nude mice; conditions: 6 x 1 mg IP, versus PBS
Experimental: as §4

[12] = target: T1, denatured soluble domain of the EGFR (sEGFR) (Homo sapiens, UniProt P00533); assay: competition ELISA; format: binding; conditions: after unlabeled blocking antibody
T1 construct: sEGFR is the recombinant extracellular domain (amino acids 1-621) of the wild-type EGFR; made in house; host or cells: CHO cells
Experimental: Briefly, the denatured soluble domain of the EGFR (sEGFR) was coated on to ELISA plates. The unlabeled 124 or 1133 antibodies were then added across the plate in increasing concentrations.

[13] = target: T2, EGFR peptide 287-302 (806 peptide epitope) (human, not fully specified (bridges); also: oxidized form in the crystals); assay: BIAcore, immobilised peptide, 200 nM antibody
T2 construct: Immobilised by amine, thiol or Pms-Ser coupling; oxidized form in the crystals
T2 peptide: CGADSYEMEEDGVRKC

xenograft U87MGΔEGFR = assay: immunohistochemistry of xenograft sections; parameters: species or system human

In the case of 528 antibody, the binding sites per cell (sites per cell) [1] is reported as 2e+06, the ratio of antibody binding mAb 528/M2 [2] is reported as 1.08 and the percent of immunoreactive cells (de2-7 EGFR (human)) is reported as > 75%. For the same molecule, the ratio of antibody binding mAb 528/M2 [3] was 1.37 and the percent of immunoreactive cells [4] was > 75%.

`COc1cc2ncnc(Nc3cccc(Cl)c3)c2cc1OC` [AG1478, 4-(3-Chloroanilino)-6,7-dimethoxyquinazoline, reference compound] was tested, and the tumor volume (A431 xenografts) was “significant reduction of tumor volume” and the “mAb806 binding to EGFR in cell lysate” value (EGFR of A431 cells) was “significantly increased”.

Work on mAb175 (antibody) yielded a Kd [5] of 154 nM, a Kd [6] of 143 nM and a Kd [7] of 35 nM.

With “mAb175: murine monoclonal antibody, SEQ ID NO:129 and SEQ ID NO:134” the “reactivity with EGFR fragments” value (EGFR fragments) was “reacted with both the 274-501 and 282-501 EGFR fragments; also recorded: did not detect fragments commencing at amino acid 290 or 298; also recorded: a 274-501 EGFR fragment with the mAb806 epitope deleted (Δ287-302) was also negative for mAb175 binding”, the staining [8] was “does not bind” and the “binding to EGFR fragments” value [9] was “recognized the yeast fragment 273-621; also recorded: not to fragments 1-176, 1-294, 294-543, or 475-621; also recorded: binds to the denatured fragment of the 273-621”. The immunohistochemical staining (xenograft U87MG (native)) was “does not stain”, the immunohistochemical staining (xenograft A431) was “stains” and the mean tumor volume (DU145 xenografts) was 815 mm^3. The FACS binding (DU145 cells) was “bind to DU145 cells”.

B1: hu806: humanized (veneered) 806 antibody, SEQ ID NO:42 and SEQ ID NO:47 (antibody, V domains shown)
VH: MDWTWRILFLVAAATGVHSQVQLQESGPGLVKPSQTLSLTCTVSGYSISSDFAWNWIRQPPGKGLEWMGYISYSGNTRYQPSLKSRITISRDTSKNQFFLKLNSVTAADTATYYCVTAGRGFPYWGQGTLVTVSS
VL: MDWTWRILFLVAAATGVHSDIQMTQSPSSMSVSVGDRVTITCHSSQDINSNIGWLQQKPGKSFKGLIYHGTNLDDGVPSRFSGSGSGTDYTLTISSLQPEDFATYYCVQYAQFPWTFGGGTKLEIKR
For B1, the xenograft growth [10] was “significant reduction in tumor growth by day 20” and the xenograft growth [11] was “marked reduction in A431 xenograft growth”.

B2: mAb1133 (antibody, mouse IgG2a, V domains shown)
VH: DVQLQGSGPSLVKPSQSLSLTCTVTGYSITSDYAWNWIRQFPGNKLEWMGYISYSGNTRYNPSLRSRISITRDTSKNQFFLQLNSVTTEDTATYYCATAGRGFPYWGQGTLVTVSA
VL: DILMTQSPSSMSVSLGDTVNITCHSSQDINSNIGWLQQKPGKSFKGLIYHGTNLDDGVPSRFSGSGSGADYSLTISSLESEDFADYYCVQYGQFPWTFGGGTKLEIKR
notes: Mouse IgG2a; variable domains only
In the case of B2, the “Binding of biotin-labeled 806” value [12] is reported as “None”, the immunohistochemical staining (xenograft A431) is reported as “pos. (predominantly” and the “Binding to mAb806 peptide (RU), maximal” value [13] is reported as 800 RU. For the same molecule, the immunohistochemical staining (xenograft U87MGΔEGFR) was “pos”.
